Measured values taken from the MegaScale stability set (Tsuboyama et al. 2023).

B1: 2M8U (parent)
chain: TKAQVIEAFKVFDRDGNGYVTVDYLRKVLNELGDMMPADEIEEMIYEADPQNSGYVQYETFVGMLFL

Variants of: B1
Test: folding stability dG (cDNA display proteolysis); higher = more stable
Conditions: PBS, room temperature

| Variant | folding stability dG |
| --- | --- |
| TKAQVIEAFKVFDRDGNGYYTVDYLRKVLNELGDMMPADEIEEMIYEADPQNSGYVQYETFVGMLFL [V20Y] | 1.85 kcal/mol |
| TKAQVIEAFKVFDRDGNGYMTVDYLRKVLNELGDMMPADEIEEMIYEADPQNSGYVQYETFVGMLFL [V20M] | 2.59 kcal/mol |
| TKAQVIEAFKVFDRDGNGYTTVDYLRKVLNELGDMMPADEIEEMIYEADPQNSGYVQYETFVGMLFL [V20T] | 3.33 kcal/mol |
| TKAQVIEAFKVFDRDGNGYSTVDYLRKVLNELGDMMPADEIEEMIYEADPQNSGYVQYETFVGMLFL [V20S] | 2.45 kcal/mol |
| TKAQVIEAFKVFDRDGNGYATVDYLRKVLNELGDMMPADEIEEMIYEADPQNSGYVQYETFVGMLFL [V20A] | 2.73 kcal/mol |
| TKAQVIEAFKVFDRDGNGYDTVDYLRKVLNELGDMMPADEIEEMIYEADPQNSGYVQYETFVGMLFL [V20D] | 2.73 kcal/mol |
| TKAQVIEAFKVFDRDGNGYITVDYLRKVLNELGDMMPADEIEEMIYEADPQNSGYVQYETFVGMLFL [V20I] | 3.62 kcal/mol |
| TKAQVIEAFKVFDRDGNGYRTVDYLRKVLNELGDMMPADEIEEMIYEADPQNSGYVQYETFVGMLFL [V20R] | 2.18 kcal/mol |
| TKAQVIEAFKVFDRDGNGYWTVDYLRKVLNELGDMMPADEIEEMIYEADPQNSGYVQYETFVGMLFL [V20W] | 2.96 kcal/mol |
| TKAQVIEAFKVFDRDGNGYETVDYLRKVLNELGDMMPADEIEEMIYEADPQNSGYVQYETFVGMLFL [V20E] | 2.16 kcal/mol |
| TKAQVIEAFKVFDRDGNGYGTVDYLRKVLNELGDMMPADEIEEMIYEADPQNSGYVQYETFVGMLFL [V20G] | 1.83 kcal/mol |
| TKAQVIEAFKVFDRDGNGYHTVDYLRKVLNELGDMMPADEIEEMIYEADPQNSGYVQYETFVGMLFL [V20H] | 1.98 kcal/mol |
| TKAQVIEAFKVFDRDGNGYNTVDYLRKVLNELGDMMPADEIEEMIYEADPQNSGYVQYETFVGMLFL [V20N] | 2.76 kcal/mol |
| TKAQVIEAFKVFDRDGNGYQTVDYLRKVLNELGDMMPADEIEEMIYEADPQNSGYVQYETFVGMLFL [V20Q] | 2.15 kcal/mol |
| TKAQVIEAFKVFDRDGNGYKTVDYLRKVLNELGDMMPADEIEEMIYEADPQNSGYVQYETFVGMLFL [V20K] | 1.46 kcal/mol |
| TKAQVIEAFKVFDRDGNGYLTVDYLRKVLNELGDMMPADEIEEMIYEADPQNSGYVQYETFVGMLFL [V20L] | 2.9 kcal/mol |
| TKAQVIEAFKVFDRDGNGYCTVDYLRKVLNELGDMMPADEIEEMIYEADPQNSGYVQYETFVGMLFL [V20C] | 3.04 kcal/mol |
| TKAQVIEAFKVFDRDGNGYPTVDYLRKVLNELGDMMPADEIEEMIYEADPQNSGYVQYETFVGMLFL [V20P] | 2.1 kcal/mol |
| TKAQVIEAFKVFDRDGNGYFTVDYLRKVLNELGDMMPADEIEEMIYEADPQNSGYVQYETFVGMLFL [V20F] | 2.47 kcal/mol |
| TKAQVIEAFKVFDRDGNGYVLVDYLRKVLNELGDMMPADEIEEMIYEADPQNSGYVQYETFVGMLFL [T21L] | 3.55 kcal/mol |

| Variant | folding stability dG |
| --- | --- |
| TKAQVIEAFKVFDRDGNGYVNVDYLRKVLNELGDMMPADEIEEMIYEADPQNSGYVQYETFVGMLFL [T21N] | 3.24 kcal/mol |
| TKAQVIEAFKVFDRDGNGYVSVDYLRKVLNELGDMMPADEIEEMIYEADPQNSGYVQYETFVGMLFL [T21S] | 3.64 kcal/mol |
| TKAQVIEAFKVFDRDGNGYVCVDYLRKVLNELGDMMPADEIEEMIYEADPQNSGYVQYETFVGMLFL [T21C] | 3.42 kcal/mol |
| TKAQVIEAFKVFDRDGNGYVPVDYLRKVLNELGDMMPADEIEEMIYEADPQNSGYVQYETFVGMLFL [T21P] | 3.46 kcal/mol |
| TKAQVIEAFKVFDRDGNGYVYVDYLRKVLNELGDMMPADEIEEMIYEADPQNSGYVQYETFVGMLFL [T21Y] | 3.38 kcal/mol |
| TKAQVIEAFKVFDRDGNGYVAVDYLRKVLNELGDMMPADEIEEMIYEADPQNSGYVQYETFVGMLFL [T21A] | 3.65 kcal/mol |
| TKAQVIEAFKVFDRDGNGYVDVDYLRKVLNELGDMMPADEIEEMIYEADPQNSGYVQYETFVGMLFL [T21D] | 3.16 kcal/mol |
| TKAQVIEAFKVFDRDGNGYVGVDYLRKVLNELGDMMPADEIEEMIYEADPQNSGYVQYETFVGMLFL [T21G] | 3.51 kcal/mol |
| TKAQVIEAFKVFDRDGNGYVIVDYLRKVLNELGDMMPADEIEEMIYEADPQNSGYVQYETFVGMLFL [T21I] | 2.89 kcal/mol |
| TKAQVIEAFKVFDRDGNGYVEVDYLRKVLNELGDMMPADEIEEMIYEADPQNSGYVQYETFVGMLFL [T21E] | 3.65 kcal/mol |
| TKAQVIEAFKVFDRDGNGYVQVDYLRKVLNELGDMMPADEIEEMIYEADPQNSGYVQYETFVGMLFL [T21Q] | 3.7 kcal/mol |
| TKAQVIEAFKVFDRDGNGYVKVDYLRKVLNELGDMMPADEIEEMIYEADPQNSGYVQYETFVGMLFL [T21K] | 3.47 kcal/mol |
| TKAQVIEAFKVFDRDGNGYVWVDYLRKVLNELGDMMPADEIEEMIYEADPQNSGYVQYETFVGMLFL [T21W] | 3.22 kcal/mol |
| TKAQVIEAFKVFDRDGNGYVHVDYLRKVLNELGDMMPADEIEEMIYEADPQNSGYVQYETFVGMLFL [T21H] | 4.14 kcal/mol |
| TKAQVIEAFKVFDRDGNGYVVVDYLRKVLNELGDMMPADEIEEMIYEADPQNSGYVQYETFVGMLFL [T21V] | 3.05 kcal/mol |
| TKAQVIEAFKVFDRDGNGYVMVDYLRKVLNELGDMMPADEIEEMIYEADPQNSGYVQYETFVGMLFL [T21M] | 3.4 kcal/mol |
| TKAQVIEAFKVFDRDGNGYVRVDYLRKVLNELGDMMPADEIEEMIYEADPQNSGYVQYETFVGMLFL [T21R] | 3.74 kcal/mol |
| TKAQVIEAFKVFDRDGNGYVFVDYLRKVLNELGDMMPADEIEEMIYEADPQNSGYVQYETFVGMLFL [T21F] | 3.29 kcal/mol |
| TKAQVIEAFKVFDRDGNVYVTVDYLRKVLNELGDMMPADEIEEMIYEADPQNSGYVQYETFVGMLFL [G18V] | 2.61 kcal/mol |
| TKAQVIEAFKVFDRDGNYYVTVDYLRKVLNELGDMMPADEIEEMIYEADPQNSGYVQYETFVGMLFL [G18Y] | 2.36 kcal/mol |
